The values that follow come from article PMC6358683 (Proceedings of the National Academy of Sciences of the …, 2019).

B1: C05 V110P (antibody, V domains shown)
VH: QVQLQESGGGLVQPGESLRLSCVGSGSSFGESTLSYYAVSWVRQAPGKGLEWLSIINAGGGDIDYADSVEGRFTISRDNSKETLYLQMTNLRVEDTGVYYCAKHMSMQQVPSAGWERADLVGDAFDVWGQGTMVTVSS
VL: DIQLTQSPSSLSASVGDRVTLTCQASQDIRKFLNWYQQKPGKGPKLLIYDASNLQRGVPSRFSGGGSGTDFTLIISSLQPEDVGTYYCQQYDGLPFTFGGGTKVVIK
B2: C05 A117E (antibody, V domains shown)
VH: B1 VH with P111V, A118E
VL: B1 VL
B3: C05 V110P-A117E (antibody, V domains shown)
VH: B1 VH with A118E
VL: B1 VL

Changes are numbered by the printed parent chain. Numbers in names are those of the source.

The first experiment has as its target HA of A/Thailand/CU44/2006 (Influenza A virus A/Thailand/CU44/2006 …, UniProt A7LI25, strain). The experiment can be described thus: ELISA.
Regarding B1, the binding result is given as “binds”.

Take B2: the binding result is listed as “binds”.

As for B3, the binding result is given as “binds”.

The next experiment deals with HA of A/Solomon Islands/03/2006 (Influenza A virus A/Solomon …, UniProt A7Y8I1, strain). As to the kind of experiment: ELISA.
Turning to B1, the binding result is on record as “binds”.

For B2, the binding result was “binds”.

With B3, the binding result is “binds”.
